Experimental data: PMC11558679, “Artificial Zymogen Based on Protein–Polymer Hybrids” (Biomacromolecules, 2024)
Values joined by “and” are separate entries in the source; they are usually repeats but may differ in a detail not shown here. Equal values may be shown once.

Key:
[1] = Biocatalytic assay (Michaelis–Menten) of CT and CT hybrids with suc-Ala-Ala-Pro-Phe-pNA; format: biochemical, bovine
Procedure: N-Succinyl-L-Ala-L-Ala-L-Pro-L-Phe-p-nitroanilide was used as a substrate for enzyme bioactivity assays. In a cuvette, 0.1 M sodium phosphate buffer (910–990 μL, pH 8.0), substrate (0–80 μL, 6 mg/mL in DMSO), and enzyme (10 μL, 0.1 mg CT/mL in 0.1 M sodium phosphate buffer (pH 8.0), 40 nM as final CT concentration) were mixed. The rate of hydrolysis was determined by recording the increase in absorbance at 412 nm for the first 45 s after mixing. KM and kcat values were calculated using the Enzfitter software when plotting substrate concentration versus initial hydrolysis velocity.

[2] = Biocatalytic assay (Michaelis–Menten) of TR and TR hybrids with Tos-Gly-Pro-Arg-pNA; format: biochemical, bovine; conditions: [TR]0 = 8.4 nM, [Tos-GPR-pNA]0 = 0–302 μM, 100 mM Tris–HCl and 20 mM CaCl2 (pH 8.0), 37 °C, absorbance 412 nm, first 45 s, Enzfitter
Procedure: N-Tosyl-L-Gly-L-Pro-L-Arg-p-nitroanilide was used as a substrate for enzyme bioactivity assays. In a cuvette, 0.1 M Tris HCl and 20 mM calcium chloride buffer (890–990 μL, pH 8.0), substrate (0–100 μL, 2 mg/mL in DMSO), and enzyme (10 μL, 0.02 mg TR/mL in 100 mM Tris–HCl and 20 mM calcium chloride (pH 8.0), 8.4 nM as final concentration) were mixed for enzyme bioactivity assays. The rate of hydrolysis was determined by recording the increase in absorbance at 412 nm for the first 45 s after mixing. KM and kcat values were calculated using Enzfitter software when plotting substrate concentration versus initial hydrolysis velocity. […]
Table S5. Char acterization and enzymatic activity of TR-pCBMA and inhibited pro- T R pol ymer h ybr i ds with different linkers between the inhibitory and cleavable peptide moieties.
SEC-M ALLS anal ysi s Michaelis-Menten parameters d
Mnb Mwb Đb DPc KM kcat kcat/KM samples kg mol-1 kg mol-1 (CBM A/inhibitor) (µM) (s-1) (µM-1 s-1) […]
SEC -MALLS and 1H NMR spectra. d conditions: [TR]0 = 8.4 nM, [Tos-GPR-pNA]0 = 0 - 302 µM, buffer 100 mM Tris-HCl and 20 mM CaCl2 (pH 8.0) at 37 °C. […]

[3] = [CT]0 = 40 nM, [suc-AAPFpNA]0 = 0–960 μM, 100 mM sodium phosphate (pH 8.0), 37 °C, absorbance 412 nm, first 45 s, Enzfitter

Row | Molecule | Km ([1]; rounded value in comparison with Ki, read-out: KM of the peptide substrate for native CT) [µM] | kcat [1, 3] [s^–1] | kcat/KM [1, 3] | Km ([1]; [CT]0 = 40 nM, [suc-AAPFpNA]0 = 0–960 μM, 100 mM sodium phosphate (pH 8.0), 37 °C, absorbance 412 nm, first 45 s, Enzfitter, read-out: KM) [µM] | kcat [2] [s^–1] | kcat/KM [2] [μM^–1 s^–1] | kcat/KM ([2]; listed as TR-pCBMA) | Km ([2]; read-out: KM) [µM]
1 | N-succinyl-L-Ala-L-Ala-L-Pro-L-Phe-p-nitroanilide [suc-Ala-Ala-Pro-Phe-pNA, reference compound] | 90 |  |  |  |  |  |  | 
2 | α-Chymotrypsin from bovine pancreas, Type II [native CT] |  | 43.6 | 0.484 μM^–1 s^–1 and 0.484 ± 0.069 μM^–1 s^–1 | 90.1 ± 12.5 |  |  |  | 
3 | TR-pCBMA hybrid: control without inhibitory domain; poly(CBMA) exclusively grafted from TR (conjugate, UniProt P00760 24-246, looked up, poly(CBMA) grafted) Serine protease 1: IVGGYTCGANTVPYQVSLNSGYHFCGGSLINSQWVVSAAHCYKSGIQVRLGEDNINVVEGNEQFISASKSIVHPSYNSNTLNNDIMLIKLKSAASLNSRVASISLPTSCASAGTQCLISGWGNTKSSGTSYPDVLKCLKAPILSDSSCKSAYPGQITSNMFCAGYLEGGKDSCQGDSGGPVVCSGKLQGIVSWGSGCAQKNKPGVYTKVCNYVSWIKQTIASN |  |  | 0.292 μM^–1 s^–1 |  | 45.7 ± 1.1 | 2.43 ± 0.36 | 2.43 ± 0.36 μM^–1 s^–1 and 2.43 μM^–1 s^–1 | 18.8 ± 2.8
